Measurements reported in the supplement of paper PMC10567573.

B1: NFE2L1 (parent)
chain: TLDGYGIHPKSIDLDNYFTARRLL

Variants of: B1
Assay: protein stability index of a GFP-peptide fusion (GPS, HEK-293T) (PSI 1-6); higher = more stable
Conditions: c terminus: a fixed tail appended
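Note: lentivirally expressed fusions sorted by FACS into six bins by GFP to DsRed ratio, PSI derived from sequencing read proportions per bin multiplied by bin number.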

Protein stability index: each site, then its substitutions
S11: N 2.19 | P 2.04 | I 1.4 | Q 1.89 | T 1.97 | M 1.57 | V 2.49 | K 2.58
L23: H 2.18 | R 3.19 | N 2.32 | E 2.6 | G 2.42 | C 2.41 | S 3.05
A20: S 2.03 | N 1.49 | L 1.53 | C 1.6 | K 2.34
Y5: I 2.21 | C 2.01 | N 2.25 | K 1.85
G6: D 1.54 | I 1.58 | F 2.69 | W 1.54 | T 1.83 | N 2.21 | E 2.02 | C 1.48 | V 2.25 | K 1.91
F18: R 2.31 | N 3 | L 1.89 | S 2.16 | V 3.05 | E 2.71 | G 2.67 | M 2.08 | C 2.03
H8: E 2.42 | M 1.82 | K 2.07 | D 2.02 | P 1.94 | A 2.22 | S 1.81 | F 1.95
D13: K 1.72 | L 1.73 | C 2 | F 1.48 | P 2.26 | V 1.76 | I 2.77 | S 1.83
I7: P 2.12 | K 1.75 | H 2.85 | L 1.7 | S 1.91 | F 1.62 | E 2.27 | Y 1.9
R21: D 2.67 | A 1.67 | Y 3.26 | P 2.05 | C 1.7 | G 2.4 | W 1.08
K10: P 1.73 | Y 1.39 | W 2.24 | C 2.54 | D 2.37 | S 2.22 | L 2.01 | Q 2.12
G4: P 1.63 | M 2.09 | Y 1.5 | K 1.53 | V 1.22 | Q 1.75 | T 1.55
I12: P 3.06 | M 1.75 | T 1.99 | R 1.93 | F 2.02 | W 2.05
Y17: Q 2.92 | V 2.21 | F 3.17 | A 1.88 | E 3.09 | D 2.64 | I 2.25 | N 2.59
N16: H 1.9 | E 2.19 | S 2.6 | Q 1.8
D15: P 2.06 | G 2.3 | K 1.72 | A 1.9 | M 1.84
P9: H 2.14 | L 2.7 | N 2.66 | G 1.91 | S 1.71 | W 2.16 | T 1.95 | F 1.55 | E 1.97
T19: N 2.09 | L 1.26 | R 2.81 | C 1.69 | K 2.46 | Q 1.77 | H 2.32 | V 1.66
R22: W 2.21 | Y 1.89 | F 1.6 | S 1.69 | H 2.2 | Q 1.89 | C 2.16
D3: T 1.61 | H 1.25 | L 2.58 | G 1.65 | E 2.14 | I 2.06
L2: C 2.75 | M 2.04 | D 2.15 | T 2.23 | A 1.58 | P 2.68
T1: K 1.52 | N 1.61 | R 1.66 | L 1.57 | V 1.55
L24: H 2.14 | Y 1.72 | N 2.48 | A 2.26 | R 3.05
L14: Y 2.25 | V 1.71 | N 2.17 | I 2.12 | S 2.62 | Q 2.21 | C 2.39 | D 2.71 | K 2.49
